# According to publication PMC12144868, “New Transferrin Receptor‐Targeting Conjugate Effectively Delivers DNA to Mouse Brain”:
# B1: tTfR aptamer 22-nt (truncated) (XNA)
# RNA: UUUAUUCACAUUUUUGAAUUGA
# modifications: all U and C 2'F-2'-deoxy (i2FU, i2FC); A and G ribo
# Target: human transferrin receptor (hTfR), extracellular domain (Homo sapiens, UniProt P02786 89-760)
# Assay: SPR; ka 6.30E+06; kd 1.38E-04 s-1; SPR Biacore T100, SA chip, biotinylated aptamer heated to 65°C then cooled to 37°C before immobilization; five hTfR concentrations at 10 uL/min; 1:1 model with
# Conditions: protein: commercial; tags: N-terminal tag (His implied by Ni-NTA; tag name cut in the text); chain copies: 2; label: biotin
# human transferrin receptor (hTfR), extracellular domain, sequence (P02786 89-760): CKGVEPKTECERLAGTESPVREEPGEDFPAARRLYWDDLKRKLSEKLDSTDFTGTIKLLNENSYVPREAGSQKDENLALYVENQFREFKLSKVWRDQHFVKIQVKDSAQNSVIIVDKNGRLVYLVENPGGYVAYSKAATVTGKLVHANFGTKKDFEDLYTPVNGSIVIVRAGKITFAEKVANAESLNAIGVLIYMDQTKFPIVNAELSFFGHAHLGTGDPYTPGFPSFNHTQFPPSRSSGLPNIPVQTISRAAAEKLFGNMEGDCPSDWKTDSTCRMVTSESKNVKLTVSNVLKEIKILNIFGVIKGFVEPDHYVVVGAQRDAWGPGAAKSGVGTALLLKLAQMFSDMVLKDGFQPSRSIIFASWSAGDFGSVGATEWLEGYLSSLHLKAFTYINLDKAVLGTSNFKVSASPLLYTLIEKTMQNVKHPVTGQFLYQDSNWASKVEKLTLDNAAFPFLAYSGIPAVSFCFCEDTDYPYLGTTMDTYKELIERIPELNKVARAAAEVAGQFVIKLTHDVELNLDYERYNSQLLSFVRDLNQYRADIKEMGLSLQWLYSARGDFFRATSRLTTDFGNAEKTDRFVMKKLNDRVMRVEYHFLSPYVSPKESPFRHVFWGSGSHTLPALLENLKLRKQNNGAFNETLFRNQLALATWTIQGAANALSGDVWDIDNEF
binder,measurement,value
B1,Kd,0.022 nM
